Experiments:
[1] = molecular target: α-D-fructofuranosidase and difructose dianhydride I synthase/hydrolase from Bifidobacterium dentium (Bifidobacterium dentium JCM 1195); assay: SEC; size-exclusion chromatography of the purified protein; conditions of this analysis not told (the purification used Hiload 16/60 Superdex 200 pg in 25 mM Tris HCl pH 7.0, 300 mM NaCl)
[2] = molecular target: α-D-fructofuranosidase and difructose dianhydride I synthase/hydrolase from Bifidobacterium dentium (Bifidobacterium dentium JCM 1195); assay: crystal structure; sitting drop vapor diffusion at 20 °C, 10 mg/ml αFFase1 in 5 mM Na acetate pH 6.0, reservoir 20% PEG 3350 and 0.2 M disodium tartrate; ligand-free and cocrystals with D-fructose or D-arabinose; hexamer in the asymmetric unit

“α-D-fructofuranosidase and difructose dianhydride I synthase/hydrolase from Bifidobacterium dentium (enzyme)” showed a stoichiometry N [1] of 6 and a stoichiometry N [2] of 6.

Source: publication PMC8605356
